Reference: PMC7244744, “Vesicular transport mediates the uptake of cytoplasmic proteins into mitochondria in Drosophila melanogaster” (Nature Communications, 2020)

Target: the molecule itself
Experiment: SDS-PAGE and western blot with and without DTT; flight-muscle tissue homogenates of wild-type flies, mitochondrial fraction; monomer band and upper band (Dosmit*); analysed in the presence and absence of DTT

B1: Dosmit (downsizing mitochondria), endogenous in fly flight muscle (natural protein, UniProt Q9VAM6 1-133, looked up)
chain: MEPISHLVKSSLPNYLSSLPVPDSIGGWFKLSFKDWLALIPPTVVVAGLGYTAYLAYCPAARASCAAKNSGRCNNHIRKNEPKVVDMIDVEDIAEKAAFCRCWKTKNWPYCDGSHGEHNKQTGDNVGPIVIKK
notes: endogenous protein of flight muscle; Seen as monomer and dimer (Dosmit*) bands on western blots; the dimer band is reduced to the monomer by DTT; also called Dosmit* (dimer form); CG1458; source: endogenous, flight-muscle tissue homogenate of wild-type flies (mitochondrial fraction)
- stoichiometry N: 2
